In assay [1] the target is MHC class II molecules on MHC class II-expressing Raji cells (human). Description: direct ELISA, plate-immobilised Raji cells; 0.5% Casein, 10,000 cells; 1000 ng/ml. For orientation: In an ELISA, binding on a coated surface is turned into a signal by an enzyme label.
The target is the same in assay [2]. The assay can be described thus: direct ELISA, plate-immobilised Raji cells; 0.5% Casein, 5,000 cells; 125 ng/ml.
Assay [3] shares this target. The assay can be described thus: direct ELISA, plate-immobilised Raji cells; 0.5% Casein, 10,000 cells; 31.25 ng/ml.
For assay [4] the target is unchanged. Description: direct ELISA, plate-immobilised Raji cells; 3% gelatin, 2,500 cells; 15.625 ng/ml.
The target is the same in assay [5]. Description: BLI; immobilised sample, Raji cells in solution; pH 7.0 control of FIG. 20. Background: In BLI a coated tip is dipped into the sample, and binding shifts an interference pattern.
The target is the same in assay [6]. Description: transfer cell ELISA, Raji cells; 3.906 ng/ml.
Assay [7] shares this target. The assay can be described thus: direct ELISA, plate-immobilised Raji cells; 0.5% Casein, 5,000 cells; 1000 ng/ml.
For assay [8] the target is unchanged. Description: transfer cell ELISA, Raji cells; 1.953 ng/ml.
The target is the same in assay [9]. The assay can be described thus: BLI; IMP321 sample at 100% binding potency, Raji cells in solution; relative to reference standard.
The target is the same in assay [10]. Description: transfer cell ELISA, Raji cells; 250 ng/ml.
Assay [11] has the same target. The assay can be described thus: direct ELISA, plate-immobilised Raji cells; 3% gelatin, 10,000 cells; 500 ng/ml.
Assay [12] shares this target. The assay can be described thus: direct ELISA, plate-immobilised Raji cells; 3% gelatin, 2,500 cells; 125 ng/ml.
For assay [13] the target is unchanged. Description: direct ELISA, plate-immobilised Raji cells; 0.5% Casein, 2,500 cells; 500 ng/ml.
Assay [14] has the same target. Description: BLI; immobilised sample, Raji cells in solution; control of FIG. 18 (37° C., 1 day, no H2O2).
Assay [15] shares this target. The assay can be described thus: direct ELISA, plate-immobilised Raji cells; 0.5% Casein, 5,000 cells; 500 ng/ml.
For assay [16] the target is unchanged. Description: direct ELISA, plate-immobilised Raji cells; 0.5% Casein, 10,000 cells; 15.625 ng/ml.
Assay [17] has the same target. Description: BLI; IMP321 sample diluted from reference standard to 75% binding potency, Raji cells in solution; relative to reference standard.
The target is the same in assay [18]. Description: direct ELISA, plate-immobilised Raji cells; 3% gelatin, 5,000 cells; 1000 ng/ml.
Assay [19] has the same target. Description: direct ELISA, plate-immobilised Raji cells; 3% gelatin, 10,000 cells; 125 ng/ml.
The target is the same in assay [20]. Description: direct ELISA, plate-immobilised Raji cells; 3% gelatin, 5,000 cells; 250 ng/ml.
For assay [21] the target is unchanged. Description: transfer cell ELISA, Raji cells; 125 ng/ml; plate row C.
The target is the same in assay [22]. Description: direct ELISA, plate-immobilised Raji cells; 10% FBS, 5,000 cells; 125 ng/ml.
Assay [23] shares this target. The assay can be described thus: direct ELISA, plate-immobilised Raji cells; 10% FBS, 5,000 cells; 250 ng/ml.
Assay [24] shares this target. The assay can be described thus: direct ELISA, plate-immobilised Raji cells; 10% FBS, 10,000 cells; 500 ng/ml.
Assay [25] has the same target. The assay can be described thus: direct ELISA, plate-immobilised Raji cells; 5% BSA, 2,500 cells; 1000 ng/ml.
Assay [26] has the same target. Description: direct ELISA, plate-immobilised Raji cells; 5% BSA, 2,500 cells; 31.25 ng/ml.
Assay [27] has the same target. Description: transfer cell ELISA, Raji cells; 0.977 ng/ml; plate row C.
For assay [28] the target is unchanged. The assay can be described thus: transfer cell ELISA, Raji cells; 62.5 ng/ml; plate row D.
Assay [29] has the same target. Description: direct ELISA, plate-immobilised Raji cells; 5% BSA, 5,000 cells; 1000 ng/ml.
Assay [30] shares this target. The assay can be described thus: direct ELISA, plate-immobilised Raji cells; 10% FBS, 5,000 cells; 1000 ng/ml.
For assay [31] the target is unchanged. The assay can be described thus: direct ELISA, plate-immobilised Raji cells; 5% BSA, 5,000 cells; 62.5 ng/ml.
Assay [32] shares this target. The assay can be described thus: transfer cell ELISA, Raji cells; 3.906 ng/ml; plate row D.
Assay [33] has the same target. Description: transfer cell ELISA, Raji cells; 1000 ng/ml; plate row D.

For two substances, OD (ELISA signal), Bioactivity (binding) and Potency determined by BLI assay results are on record in US20190361034A1.

As for “IMP321, recombinant soluble human LAG-3Ig fusion protein (Fc fusion)”, the OD (ELISA signal) in [1] worked out at 0.16 OD; in assay [2], 0.197 OD; in [3], 0.18 OD; in assay [4], 0.295 OD; in [6], 0.034 OD; in assay [7] it was 0.136 OD. Further, the OD (ELISA signal) in [8] was determined as 0.026 OD; in assay [10], 0.956 OD; in assay [11] it was 1.55 OD; in assay [12], 0.77 OD; in assay [13] it was 0.18 OD; in [15], 0.206 OD. Also, the OD (ELISA signal) was 0.185 OD in assay [16], 2.31 OD in [18], 0.688 OD in assay [19] and 2.1 OD in assay [20]. The Bioactivity (binding) in assay [5] is 126%; in [14], 77%. The Potency determined by BLI assay was 98% in [9] and 80% in assay [17].
On to “IMP321 treated with Peptide-N-Glycosidase F (PNGase F) (Fc fusion)”, for which the OD (ELISA signal) in assay [21] is 0.166 OD; in assay [22] it was 0.443 OD; in assay [23], 0.939 OD; in assay [24], 1.35 OD; in [25], 1.83 OD; in [26], 0.304 OD. The OD (ELISA signal) turned out to be 0.01 OD in assay [27]; 0.076 OD in assay [28]; 1.81 OD in [29]; 2.25 OD in [30]; 0.303 OD in assay [31]; 0.012 OD in [32]. In assay [33], the OD (ELISA signal) worked out at 1.13 OD.
